The source of these data is PMC4268010 (Molecular cell, 2014).

Values joined by “and” are separate entries in the source; they are usually repeats but may differ in a detail not shown here. Identical values can stand only once.

B1: His6-Flag-tagged Mph1 (enzyme, budding yeast, UniProt P40562 1-993, looked up)
chain: MASADDYFSDFEDDELDKLYEKAINKSVKETITRRAVPVQKDLHDNVLPGQKTVYEEIQRDVSFGPTHHELDYDALSFYVYPTNYEVRDYQYTIVHKSLFQNTLCAIPTGMGKTFIASTVMLNYFRWTKKAKIIFTAPTRPLVAQQIKACLGITGIPSDQTAILLDKSRKNREEIWANKRVFFATPQVVENDLKRGVLDPKDIVCLVIDEAHRATGSSAYTNVVKFIDRFNSSYRLLALTATPASDLEGVQEVVNNLDISKIEIRTEESMDIVKYMKKRKKEKIEVPLLLEIEDIIEQLGMAVKPVLQQAIELGIYEECDPSQINAFKAMQQSQKIIANPTIPEGIKWRNFFILQLLNNVGQMLKRLKIYGIRTFFNYFQNKCTEFTTKYNLKKSTNKIAAEFYYHPILKNIKNQCENYLSDPKFVGHGKLQCVRDELMDFFQKRGSDSRVIIFTELRESALEIVKFIDSVADDQIRPHIFIGQARAKEGFDEVKYTRKHAPKGRKKVERLHRQEQEKFLEAERTKRAANDKLERSARRTGSSEEAQISGMNQKMQKEVIHNFKKGEYNVLVCTSIGEEGLDIGEVDLIICYDTTSSPIKNIQRMGRTGRKRDGKIVLLFSSNESYKFERAMEDYSTLQALISKQCIDYKKSDRIIPEDIIPECHETLITINDENEIINEMEDVDEVIRYATQCMMGKKVKPKKAITKKKRVQENKKPKKFFMPDNVETSIVSASTLINKFLVNESGGKQLVTSNENPSKKRKIFKALDNLENDSTEEASSSLETEDEEVSDDNNVFIAEGQNGCQKDLETAIIRTGESLTTLKPLHNFERPNMALFVNDCGLPTKIEKNVKDIRGNQHNLEKEKSCTVDKNNMVLSLDDWNFFRNRYIPEGVSFDVEPNFVQYTKGVKVPHCHKVSKIITLFNDESNDNKKRTIDMNYTKCLARGMLRDEKKFVKVNDKSQVDNNSVNHDSSQSFTLSNAELDDILGSDSDF
B2: MBP-tagged smc5-ΔNC (residues 149-944) (domain or fragment, UniProt Q08204 149-944, looked up)
chain: DYLINDYQVSESVVKTLVAQLNIQLDNLCQFLSQERVEEFARLKSVKLLVETIRSIDASLLDVLDELRELQGNEQSLQKDLDFKKAKIVHLRQESDKLRKSVESLRDFQNKKGEIELHSQLLPYVKVKDHKEKLNIYKEEYERAKANLRAILKDKKPFANTKKTLENQVEELTEKCSLKTDEFLKAKEKINEIFEKLNTIRDEVIKKKNQNEYYRGRTKKLQATIISTKEDFLRSQEILAQTHLPEKSVFEDIDIKRKEIINKEGEIRDLISEIDAKANAINHEMRSIQRQAESKTKSLTTTDKIGILNQDQDLKEVRDAVLMVREHPEMKDKILEPPIMTVSAINAQFAAYLAQCVDYNTSKALTVVDSDSYKLFANPILDKFKVNLRELSSADTTPPVPAETVRDLGFEGYLSDFITGDKRVMKMLCQTSKIHTIPVSRRELTPAQIKKLITPRPNGKILFKRIIHGNRLVDIKQSAYGSKQVFPTDVSIKQTNFYQGSIMSNEQKIRIENEIINLKNEYNDRKSTLDALSNQKSGYRHELSELASKNDDINREAHQLNEIRKKYTMRKSTIETLREKLDQLKREARKDVSQKIKDIDDQIQQLLLKQRHLLSKMASSMKSLKNCQKELISTQILQFEAQNMDVSMNDVIGFFNEREADLKSQYEDKKKFVKEMRDTPEFQSWMREIRSYDQDTKEKLNKVAEKYEEEGNFNLSFVQDVLDKLESEIAMVNHDESAVTILDQVTAELRELEHTVPQQSKDLETIKAKLKEDHAVLEPKLDDIVSKISARFARLF

One experiment addresses T1, MBP-tagged Smc5 (WT) (UniProt Q08204 1-1093).
T1 sequence (looked up): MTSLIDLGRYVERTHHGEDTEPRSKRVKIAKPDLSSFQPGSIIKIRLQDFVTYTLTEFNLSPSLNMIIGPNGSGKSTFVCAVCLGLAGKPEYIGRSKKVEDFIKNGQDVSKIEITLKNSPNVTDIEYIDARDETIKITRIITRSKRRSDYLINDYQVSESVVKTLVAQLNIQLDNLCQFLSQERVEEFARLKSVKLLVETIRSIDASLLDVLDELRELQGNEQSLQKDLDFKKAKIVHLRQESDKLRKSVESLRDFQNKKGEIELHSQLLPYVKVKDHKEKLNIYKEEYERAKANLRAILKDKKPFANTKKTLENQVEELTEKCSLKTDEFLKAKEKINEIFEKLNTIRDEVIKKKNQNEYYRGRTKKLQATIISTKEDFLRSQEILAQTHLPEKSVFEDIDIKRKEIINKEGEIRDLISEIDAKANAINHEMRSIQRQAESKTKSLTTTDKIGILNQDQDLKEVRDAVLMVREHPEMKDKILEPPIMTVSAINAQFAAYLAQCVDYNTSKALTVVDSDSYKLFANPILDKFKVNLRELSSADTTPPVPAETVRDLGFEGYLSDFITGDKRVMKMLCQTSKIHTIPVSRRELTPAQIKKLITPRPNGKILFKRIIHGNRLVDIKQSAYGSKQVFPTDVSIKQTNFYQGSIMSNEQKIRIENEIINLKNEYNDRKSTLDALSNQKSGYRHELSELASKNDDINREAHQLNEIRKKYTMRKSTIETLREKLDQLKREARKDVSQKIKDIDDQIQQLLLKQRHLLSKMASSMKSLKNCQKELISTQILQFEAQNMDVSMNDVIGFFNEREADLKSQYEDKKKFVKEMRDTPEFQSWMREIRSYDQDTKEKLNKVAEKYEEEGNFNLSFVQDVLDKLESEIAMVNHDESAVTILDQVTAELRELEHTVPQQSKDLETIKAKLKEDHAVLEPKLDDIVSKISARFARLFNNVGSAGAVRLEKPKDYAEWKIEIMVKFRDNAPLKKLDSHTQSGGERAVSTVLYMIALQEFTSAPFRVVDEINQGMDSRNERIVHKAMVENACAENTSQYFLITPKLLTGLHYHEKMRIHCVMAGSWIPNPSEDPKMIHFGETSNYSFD
Put plainly: pull-down.

The target of experiment [1] is T2, His6-Flag-tagged Mph1 (budding yeast), P40562.
T2 chain: B1 chain
The experiment in a line: atomic force microscopy, volume analysis. As to conditions: remark: other sources report otherwise.

Another experiment has as its target T3, Strep-tagged Smc5 (UniProt Q08204 1-1093).
T3 sequence (looked up): T1 sequence (looked up)
Put plainly: pull-down.

The target of experiment [2] is Myc-Smc5-Strep-Smc6 complex (UniProt Q08204 1-1093; Q12749 1-1114). Put plainly: pull-down.
In experiment [3] the target is T2, His6-Flag-tagged Mph1 (budding yeast), …. The experiment in a line: atomic force microscopy, volume analysis. As to conditions: remark: other sources report otherwise.
The experiment “His6-Flag-tagged Mph1” has as its target B1. The experiment in a line: pull-down.

Sequence of Myc-Smc5-Strep-Smc6 complex (Q12749 whole entry, one chain of several): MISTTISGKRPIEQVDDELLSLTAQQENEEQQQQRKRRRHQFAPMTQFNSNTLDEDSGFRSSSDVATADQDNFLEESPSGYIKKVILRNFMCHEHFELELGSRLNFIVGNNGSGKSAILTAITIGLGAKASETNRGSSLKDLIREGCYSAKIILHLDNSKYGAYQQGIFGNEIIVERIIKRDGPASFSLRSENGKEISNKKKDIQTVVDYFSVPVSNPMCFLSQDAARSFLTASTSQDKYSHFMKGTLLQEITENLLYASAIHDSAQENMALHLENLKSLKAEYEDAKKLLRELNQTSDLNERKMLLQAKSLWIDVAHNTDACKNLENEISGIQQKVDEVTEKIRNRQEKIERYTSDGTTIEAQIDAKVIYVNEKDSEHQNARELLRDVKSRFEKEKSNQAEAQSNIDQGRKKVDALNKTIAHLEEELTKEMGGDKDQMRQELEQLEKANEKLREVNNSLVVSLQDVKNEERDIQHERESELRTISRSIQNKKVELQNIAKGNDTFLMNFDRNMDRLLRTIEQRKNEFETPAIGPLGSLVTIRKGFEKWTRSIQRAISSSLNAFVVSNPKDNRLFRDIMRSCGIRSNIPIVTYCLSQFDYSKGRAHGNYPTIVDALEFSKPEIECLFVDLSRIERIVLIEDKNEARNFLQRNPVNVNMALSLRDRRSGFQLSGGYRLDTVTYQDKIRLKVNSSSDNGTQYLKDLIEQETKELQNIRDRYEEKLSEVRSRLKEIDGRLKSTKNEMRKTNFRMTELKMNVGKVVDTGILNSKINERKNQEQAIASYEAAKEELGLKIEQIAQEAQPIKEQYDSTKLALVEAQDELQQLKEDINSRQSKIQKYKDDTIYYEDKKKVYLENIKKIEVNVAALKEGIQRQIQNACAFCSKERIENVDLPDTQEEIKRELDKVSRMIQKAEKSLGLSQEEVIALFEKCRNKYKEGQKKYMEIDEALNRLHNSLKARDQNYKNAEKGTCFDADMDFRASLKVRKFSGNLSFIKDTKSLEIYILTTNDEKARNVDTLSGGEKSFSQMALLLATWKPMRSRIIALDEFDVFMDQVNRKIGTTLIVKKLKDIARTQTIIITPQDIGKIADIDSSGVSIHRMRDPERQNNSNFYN

B1: the binding result (with MBP-tagged Smc5 (WT); with Strep-tagged Smc5; in experiment [2]) was “binds” each time. The stoichiometry N (Mph1 monomer equivalents) was 1.4 in experiment [1]; 7.3 and 12 and 17.4 in experiment [3].
Regarding B2, the binding result in the experiment with His6-Flag-tagged Mph1 is “binds”.
